Where two headings read alike, the source gives them in different places.

For one assay, the target named is T1, Human GDF15 protein (human, UniProt Q99988 197-308).
T1 construct: Natural GDF15 is said to be a disulfide-linked homodimer; also called Human-GDF15-his
T1 sequence: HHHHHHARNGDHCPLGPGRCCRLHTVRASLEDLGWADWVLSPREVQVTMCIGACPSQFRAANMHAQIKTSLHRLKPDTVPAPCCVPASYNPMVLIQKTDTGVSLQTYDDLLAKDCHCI
Description: ELISA, coated protein, antibody at 4 µg/mL. On the technique in general: ELISA stands for enzyme-linked immunosorbent assay.

Assay [1] deals with T2, human Activin A protein (human, UniProt P08476 311-426).
T2 construct: Bought; Activin A is by nature a dimer of inhibin beta A chains
T2 sequence (looked up): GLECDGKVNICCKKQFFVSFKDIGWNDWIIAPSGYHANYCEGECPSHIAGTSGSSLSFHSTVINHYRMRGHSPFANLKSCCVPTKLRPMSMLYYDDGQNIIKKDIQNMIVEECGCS
Nature of the assay: ELISA, coated protein, antibody at 4 µg/mL.

Assay [2] has as its target T3, human TGFβ1 protein (human, UniProt P01137 279-390).
T3 construct: Bought
Description: ELISA, coated protein, antibody at 4 µg/mL.

Assay [3] has as its target T4, human BMP4 protein (human, UniProt P12644 293-408).
T4 construct: Bought
T4 sequence (looked up): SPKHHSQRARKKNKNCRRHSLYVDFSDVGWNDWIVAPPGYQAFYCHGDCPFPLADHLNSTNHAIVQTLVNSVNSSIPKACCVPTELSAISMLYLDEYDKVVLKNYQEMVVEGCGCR
Nature of the assay: ELISA, coated protein, antibody at 4 µg/mL.

The target of assay [4] is T5, human GFRα1 protein (human, UniProt P56159 25-429, limits assumed).
T5 construct: Bought
T5 sequence (looked up): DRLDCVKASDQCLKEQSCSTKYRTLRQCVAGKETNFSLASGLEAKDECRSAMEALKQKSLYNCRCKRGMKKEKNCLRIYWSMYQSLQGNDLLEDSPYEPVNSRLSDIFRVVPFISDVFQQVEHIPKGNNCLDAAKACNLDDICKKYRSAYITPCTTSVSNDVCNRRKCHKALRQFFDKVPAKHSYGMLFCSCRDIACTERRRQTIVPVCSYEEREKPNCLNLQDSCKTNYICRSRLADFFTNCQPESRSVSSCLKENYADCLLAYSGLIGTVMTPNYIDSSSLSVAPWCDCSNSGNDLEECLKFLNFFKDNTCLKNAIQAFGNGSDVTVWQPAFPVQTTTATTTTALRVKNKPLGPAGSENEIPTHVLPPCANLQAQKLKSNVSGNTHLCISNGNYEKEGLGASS
Description: ELISA, coated protein, antibody at 4 µg/mL.

Assay [5] deals with T6, human Activin B protein (human, UniProt P09529 293-407).
T6 construct: Bought; Activin B is by nature a dimer of inhibin beta B chains
T6 sequence (looked up): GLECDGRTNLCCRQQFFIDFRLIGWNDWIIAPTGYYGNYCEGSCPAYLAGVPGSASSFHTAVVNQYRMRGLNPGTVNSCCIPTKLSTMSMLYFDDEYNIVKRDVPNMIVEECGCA
Nature of the assay: ELISA, coated protein, antibody at 4 µg/mL.

The target in assay [6] is human GDF8 protein (human) (UniProt O14793). Description: ELISA, coated protein, antibody at 4 µg/mL.
The target in assay [7] is human AMH protein (human) (UniProt P03971). Nature of the assay: ELISA, coated protein, antibody at 4 µg/mL.
Assay [8] has as its target T2, human Activin A protein. Nature of the assay: ELISA, coated protein, antibody at 4 µg/mL. The source holds these as a separate data set.
The target in assay [9] is T3, human TGFβ1 protein. Nature of the assay: ELISA, coated protein, antibody at 4 µg/mL. The source holds these as a separate data set.
Assay [10] has as its target T4, human BMP4 protein. Description: ELISA, coated protein, antibody at 4 µg/mL. The source holds these as a separate data set.
The target of assay [11] is T5, human GFRα1 protein. Nature of the assay: ELISA, coated protein, antibody at 4 µg/mL. This is another data set of the same source.
The target of the next assay is T7, human BMP2 protein (human, UniProt P12643 283-396).
T7 construct: Bought
Nature of the assay: ELISA, coated protein, antibody at 4 µg/mL.

The next assay concerns the target T8, human GDF11 protein (human, UniProt O95390 299-407).
T8 construct: Bought
T8 sequence (looked up): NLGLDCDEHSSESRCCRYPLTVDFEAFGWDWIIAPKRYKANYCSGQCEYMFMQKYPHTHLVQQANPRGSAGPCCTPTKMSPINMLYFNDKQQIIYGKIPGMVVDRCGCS
Nature of the assay: ELISA, coated protein, antibody at 4 µg/mL.

The next assay concerns the target T9, human GDF2 protein (human, UniProt Q9UK05 320-429).
T9 construct: Bought
T9 sequence (looked up): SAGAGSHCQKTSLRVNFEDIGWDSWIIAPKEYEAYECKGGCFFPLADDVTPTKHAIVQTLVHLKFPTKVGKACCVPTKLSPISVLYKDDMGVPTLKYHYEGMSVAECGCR
Nature of the assay: ELISA, coated protein, antibody at 4 µg/mL.

The target in assay [12] is T6, human Activin B protein. Description: ELISA, coated protein, antibody at 4 µg/mL. This is another data set of the same source.
In assay [13] the target is T10, human GDNF protein (human, UniProt P39905 78-211).
T10 construct: Bought
T10 sequence (looked up): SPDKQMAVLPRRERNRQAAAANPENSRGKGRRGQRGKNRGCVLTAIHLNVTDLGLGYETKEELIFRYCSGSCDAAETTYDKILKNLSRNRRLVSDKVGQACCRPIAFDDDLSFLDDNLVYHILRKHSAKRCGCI
Nature of the assay: ELISA, coated protein, antibody at 4 µg/mL.

Assay [14] has as its target human GDF8 protein (human) (UniProt O14793). Nature of the assay: ELISA, coated protein, antibody at 4 µg/mL. This is another data set of the same source.
The target of assay [15] is human AMH protein (human) (UniProt P03971). Nature of the assay: ELISA, coated protein, antibody at 4 µg/mL. The source holds these as a separate data set.
The next assay concerns the target T11, human FcRn protein (human, UniProt P55899 24-297).
T11 construct: Bought, loaded on a streptavidin (SA) sensor; FcRn is by nature a heterodimer with beta-2-microglobulin
Description: BLI (Octet RED96e), FcRn on SA sensor, antibody as analyte, binding and dissociation at pH 6.0, 1:1 model. (BLI is a label-free optical method that tracks binding on a fibre tip over time.)

For assay [16], the target named is T10, human GDNF protein. Description: ELISA, coated protein.

T11 sequence (P55899 24-297 limits assumed, form in doubt): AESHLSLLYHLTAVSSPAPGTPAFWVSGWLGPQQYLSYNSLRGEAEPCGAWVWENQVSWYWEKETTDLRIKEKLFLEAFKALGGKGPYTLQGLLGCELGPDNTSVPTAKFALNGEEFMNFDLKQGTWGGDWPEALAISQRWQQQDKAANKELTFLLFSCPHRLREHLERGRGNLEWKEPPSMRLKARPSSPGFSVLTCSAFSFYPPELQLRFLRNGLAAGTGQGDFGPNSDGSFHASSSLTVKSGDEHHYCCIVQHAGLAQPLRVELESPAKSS
T3 sequence (P01137 279-390 limits assumed): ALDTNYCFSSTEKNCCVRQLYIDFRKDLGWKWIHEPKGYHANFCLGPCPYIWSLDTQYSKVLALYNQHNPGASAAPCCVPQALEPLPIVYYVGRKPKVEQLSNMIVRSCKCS
T7 sequence (P12643 283-396 limits assumed): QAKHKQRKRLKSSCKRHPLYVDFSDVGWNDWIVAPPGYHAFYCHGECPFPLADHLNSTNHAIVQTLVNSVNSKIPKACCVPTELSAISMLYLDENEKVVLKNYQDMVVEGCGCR

B1: HuVHH43-3 (Fc fusion)
heavy: QLQLVESGGGLVQPGGSLRLSCAASGHTYGMGWFRQAPGKAREIVSAISRSGSSTYYADSVKGRFTISRDNSKNTLYLQMNSLRAEDTAVYICGASTSALVPTTTGMYAYWGQGTRVTVSSEPKSSDKTHTCPPCPAPEAAGAPSVFLFPPKPKDTLMISRTPEVTCVVVDVSHEDPEVKFNWYVDGVEVHNAKTKPREEQYNSTYRVVSVLTVLHQDWLNGKEYKCKVSNKALPAPIEKTISKAKGQPREPQVYTLPPSREEMTKNQVSLTCLVKGFYPSDIAVEWESNGQPENNYKTTPPVLDSDGSFFLYSKLTVDKSRWQQGNVFSCSVMHEALHNHYTQKSLSLSPGK
notes: also called huVHH43-IgG1-mut(L234A,L235A,G237A); VHH humanized anti-GDF15 antibody
Turning to B1, the OD value in the assay with Human GDF15 protein stood at 3.21 OD 450 nm-620 nm; with human Activin A protein [1], 0.0493 OD 450 nm-620 nm; in the assay with human TGFβ1 protein [2] it was 0.055 OD 450 nm-620 nm; with human BMP4 protein [3], 0.0539 OD 450 nm-620 nm; with human GFRα1 protein [4], 0.27 OD 450 nm-620 nm; in the assay with human Activin B protein [5], 0.062 OD 450 nm-620 nm. Besides, the OD value (OD 450 nm-620 nm) came out at 0.0421 in assay [6] and 0.0485 in [7].

B2: Hu19C4C7 (antibody, human IgG1, kappa)
heavy: QVQLVQSGAEVKKPGSSVKVSCKASGYSFTGYIMNWVRQAPGQSLEWMGDIDPYYGGPNYNQKFQGRVTITVDKSTSTAYMELSSLRSEDTAVYYCSRRDYNYGSFAYWGQGTLVTVSSASTKGPSVFPLAPSSKSTSGGTAALGCLVKDYFPEPVTVSWNSGALTSGVHTFPAVLQSSGLYSLSSVVTVPSSSLGTQTYICNVNHKPSNTKVDKKVEPKSCDKTHTCPPCPAPEAAGAPSVFLFPPKPKDTLMISRTPEVTCVVVDVSHEDPEVKFNWYVDGVEVHNAKTKPREEQYNSTYRVVSVLTVLHQDWLNGKEYKCKVSNKALPAPIEKTISKAKGQPREPQVYTLPPSREEMTKNQVSLTCLVKGFYPSDIAVEWESNGQPENNYKTTPPVLDSDGSFFLYSKLTVDKSRWQQGNVFSCSVMHEALHNHYTQKSLSLSPGK
light: QIVLTQSPATLSLSPGERATLSCRASSSVNYMHWYQQKPGQAPRPLIYATSNLATGIPARFSGSGSGTDYTLTISSLEPEDFAVYYCQQWSDNPPTFGQGTKLEIKRTVAAPSVFIFPPSDEQLKSGTASVVCLLNNFYPREAKVQWKVDNALQSGNSQESVTEQDSKDSTYSLSSTLTLSKADYEKHKVYACEVTHQGLSSPVTKSFNRGEC
notes: Humanized form of murine 19C4C7; human IgG1 constant region with L234A, L235A, G237A and kappa light chain constant region; also called hu19C4C7-IgG1-mut(L234A,L235A,G237A)
The Kd is a measure of binding affinity in units of concentration. Broadly, the koff is a measure of how fast the partners let go of each other. One may read the kon as a measure of how fast the partners come together. A higher kon goes with fast association. Turning to B2, the OD value with human Activin A protein [8] is 0.0595 OD 450 nm-620 nm; in the assay with human TGFβ1 protein [9] it was 0.103 OD 450 nm-620 nm; with human BMP4 protein [10], 0.0587 OD 450 nm-620 nm; with human GFRα1 protein [11] it was 0.11 OD 450 nm-620 nm; with human BMP2 protein, 0.0764 OD 450 nm-620 nm; with human GDF11 protein, 0.0735 OD 450 nm-620 nm. The OD value in the assay with human GDF2 protein came out at 0.0616 OD 450 nm-620 nm; with human Activin B protein [12] it was 0.12 OD 450 nm-620 nm; with Human GDF15 protein, 3.27 OD 450 nm-620 nm; with human Activin A protein [1] it was 0.0577 OD 450 nm-620 nm; with human GDNF protein [13], 0.0531 OD 450 nm-620 nm; in the assay with human TGFβ1 protein [2] it was 0.0437 OD 450 nm-620 nm. Also, the OD value with human BMP4 protein [3] is 0.0432 OD 450 nm-620 nm; in the assay with human GFRα1 protein [4], 0.0468 OD 450 nm-620 nm; in the assay with human Activin B protein [5] it was 0.136 OD 450 nm-620 nm. The OD value (OD 450 nm-620 nm) in assay [6] was found to be 0.0423; in [7], 0.0464; in [14] it was 0.0505; in assay [15], 0.0887. In addition, the affinity with human FcRn protein, expressed as Kd, was 7.41 nM. The molecule also had a koff in the assay with human FcRn protein of 0.0146 s⁻¹. The same molecule registered a kon with human FcRn protein of 1.97e+06 M⁻¹ s⁻¹. Besides, the binding result with human GDNF protein [16] is on record as “no binding (tested: 4 µg/mL)”.

B3: Hu21H6D2 (antibody, human IgG1, kappa, V domains shown)
VH: QVQLVQSGAEVKKPGASVKVSCKASGYTFTGYIMNWVRQAPGQRLEWMGDIDPYYGDAKYNQKFKGKVTITVDKSASTAYMELSSLRSEDTAVYYCARRDYDHGSFAYWGQGTLVTVSS
VL: EIVLTQSPDFQSVTPKEKVTITCSASSSVNYMHWYQQKPDQSPKRLIYDTSKLASGVPSRFSGSGSGTDYTLTINSLEAEDAATYYCQQWSSNPPTFGQGTKLEIKR
notes: Humanized form of murine 21H6D2; human IgG1 constant region with L234A, L235A, G237A and kappa light chain constant region; also called hu21H6D2-IgG1-mut(L234A,L235A,G237A)
As to B3, the OD value with Human GDF15 protein was 3.17 OD 450 nm-620 nm; with human Activin A protein [1], 0.0632 OD 450 nm-620 nm; in the assay with human GDNF protein [13], 0.105 OD 450 nm-620 nm; with human TGFβ1 protein [2], 0.0426 OD 450 nm-620 nm; in the assay with human BMP4 protein [3], 0.0411 OD 450 nm-620 nm; with human GFRα1 protein [4] it was 0.0655 OD 450 nm-620 nm. Further, in the assay with human Activin B protein [5], the OD value came out at 0.0899 OD 450 nm-620 nm. Besides, the figures for the OD value (OD 450 nm-620 nm) in [6] and in [7] were 0.0426 and 0.0537, respectively. The binding result in the assay with human GDNF protein [16] is reported as “no binding (tested: 4 µg/mL)”.
